Paper PMC2872554 (Nature structural & molecular biology, 2010)
Each block holds one molecule with its values, some of them ahead of it.

Legend:
[1] = target: mouse E-cadherin EC1-2 AA extension mutant (mouse); assay: AUC
[2] = target: mouse E-cadherin EC1-2 E89A (mouse); assay: AUC
[3] = target: mouse E-cadherin EC1-2 K14E (mouse); assay: AUC
[4] = target: mouse E-cadherin EC1-2 K14S (mouse); assay: AUC
[5] = target: mouse E-cadherin EC1-2 W2A (mouse); assay: AUC
[6] = target: mouse E-cadherin EC1-2 Y142R (mouse); assay: AUC
[7] = target: mouse E-cadherin EC1-2 fragment, wild type (mouse); assay: AUC
[8] = target: C-terminally biotinylated mouse cadherin-6 EC1-2 M188D (mouse); assay: SPR
[9] = target: mouse cadherin-6 EC1-2 M188D (mouse); assay: AUC
[10] = target: mouse cadherin-6 EC1-2 W4A (mouse); assay: AUC
[11] = target: mouse cadherin-6 EC1-2 fragment, wild type (mouse); assay: AUC
crystal structure = target: the molecule itself; assay: crystal structure

Molecule: mouse E-cadherin EC1-2 AA extension mutant (domain or fragment)
Kd [1]: 811 µM

Molecule: mouse E-cadherin EC1-2 K14E (domain or fragment)
Kd [3]: 117 µM

Molecule: mouse E-cadherin EC1-2 W2A (domain or fragment)
Kd [5]: 916 µM

Molecule: mouse E-cadherin EC1-2 Y142R (domain or fragment)
Kd [6]: 77.4 µM

Molecule: mouse E-cadherin EC1-2 fragment, wild type (domain or fragment)
Kd [7]: 98.6 µM

Molecule: mouse cadherin-6 EC1-2 W4A (domain or fragment)
Kd [10]: 321 µM

Molecule: mouse cadherin-6 EC1-2 fragment, wild type (domain or fragment)
Kd [11]: 3.1 µM

B1: mouse N-cadherin EC1-2 fragment, wild type (domain or fragment)
chain: DWVIPPINLPENSRGPFPQELVRIRSDRDKNLSLRYSVTGPGADQPPTGIFIINPISGQLSVTKPLDRELIARFHLRAHAVDINGNQVENPIDIVINVIDMNDNRPEFLHQVWNGSVPEGSKPGTYVMTVTAIDADDPNALNGMLRYRILSQAPSTPSPNMFTINNETGDIITVAAGLDREKVQQYTLIIQATDMEGNPTYGLSNTATAVITVTD
binding result (crystal structure): binds

Results, then the molecule that gave them:

Kd [2]: 293 µM
Molecule: mouse E-cadherin EC1-2 E89A (domain or fragment)

Kd [4]: 96 µM
Molecule: mouse E-cadherin EC1-2 K14S (domain or fragment)

binding response [8]: < 10 RU
Kd [9]: 12.6 µM
Molecule: mouse cadherin-6 EC1-2 M188D (domain or fragment)
